The target in this experiment is recombinant IL18 (YK27-1) (Homo sapiens (Human)) (UniProt Q14116). Description: cell-based or functional assay.

B1: Murine anti-human IL-18 mAb (125-2H) (antibody, from another filing, V domains shown)
VH: EIQLQQSGPELVKPGASVKVSCKASGYSFTDYFIYWVKQSHGKSLEWIGDIDPYNGDTSYNQKFRDKATLTVDQSSTTAFMHLNSLTSEDSAVYFCARGLRFWGQGTLVTVSA
VL: DIQMTQSPSSLSASLGERVSLTCRASQDIGSKLYWLQQEPDGTFKRLIYATSSLDSGVPKRFSGSRSGSDYSLTISSLESEDFVDYYCLQYASSPYTFGGGTKLAIKR
Regarding B1, the IFN (interferon γ) transcript level, quantitative PCR, whole blood stimulated with IL18+IL12, donor1n (Unstimulated 0.002, Stimulated 0.339) is 0.07; the IFN (interferon γ) transcript level, quantitative PCR, whole blood stimulated with IL18+IL12, donor 3n (Unstimulated 0.001, Stimulated 0.187) amounted to 0.026; the IFN (interferon γ) transcript level, quantitative PCR, whole blood stimulated with IL18+IL12, donor4n (Unstimulated 0.001, Stimulated 0.082) came out at 0.027; the IFN (interferon γ) transcript level, quantitative PCR, whole blood stimulated with IL18+IL12, donor 5n (Unstimulated 0.003, Stimulated 0.012) was 0.006. The IFN (interferon γ) transcript level, quantitative PCR, whole blood stimulated with IL18+IL12, donor6n (Unstimulated 0.002, Stimulated 0.076) stood at 0.01; the IFN (interferon γ) transcript level, quantitative PCR, whole blood stimulated with IL18+IL12, donor7n (Unstimulated 0.002, Stimulated 0.049) came out at 0.012; the IFN (interferon γ) transcript level, quantitative PCR, whole blood stimulated with IL18+IL12, donor8n (Unstimulated 0.002, Stimulated 0.049) amounted to 0.012; the IFN (interferon γ) transcript level, quantitative PCR, whole blood stimulated with IL18+IL12, donor 9n (Unstimulated 0.001, Stimulated 1.250) was 0. Further, the IFN (interferon γ) transcript level, quantitative PCR, whole blood stimulated with IL18+IL12, donor10n (Unstimulated 0.002, Stimulated 0.361) is 0.002.

For the origin of these results see patent US20050100965A1.
